Experiment [1] addresses Artemia franciscana ferritin (Artemia franciscana). The experiment in a line: native gel or EMSA. (In general: In EMSA bound probe runs differently from free probe, usually more slowly.)
Experiment [2] has the same target. The experiment in a line: cryo-EM structure.

The term stoichiometry N denotes the number of molecules, sites or subunits per partner or assembly. Turning to “Artemia franciscana ferritin (natural protein)”, the stoichiometry N in experiment [1] and in experiment [2] was 24 in each case.
